Consider one substance from patent publication US20250129140A1, “ANTI-HCMV ANTIBODIES AND ANTIGEN-BINDING FRAGMENTS THEREOF” (ICAHN SCHOOL OF MEDICINE AT MOUNT SINAI, priority 2021, published 2025).

In this test the target is MHC class I on ARPE-19 cells (Homo sapiens). The test can be described thus: flow cytometry on ARPE-19 cells infected with AD169R (GFP reporter), 6 dpi, antibody 2 µg/mL, anti-mouse AF647 secondary.

Substance α-MHC-1 (W6/32) (antibody) yielded a Q1, percent of cells GFP- and Alexa Fluor 647+ of 86.9%; a Q2, percent of cells GFP+ and Alexa Fluor 647+ of 12.7%.
